# Data reported in the nanobody polyreactivity screen of Harvey et al. (2022).
# Assay: yeast display, Sf9 membrane polyspecificity reagent, FACS + sequencing; frameworks hold sequencing errors
# Outline: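 Genes from sorted yeast were amplified by colony PCR, read by MiSeq 2 × 250 sequencing and filtered on CDR length. These cells carried a synthetic nanobody library in Saccharomyces cerevisiae BJ5465 and were sorted by FACS into low and high (top ~1%) gates on anti-HA and streptavidin fluorescence. Polyreactivity is labelled according to the gate of origin.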
row,Sequence,polyreactivity (PSR sort gate)
1,QVQLVESGGGLVQAGGSLRLRCASSGGIFVPYAMGWYRQAPGKERELVAGITSGGSTNYADSVKGRFSISRDNAKNTVYLQMNRLKPEDTAVYYCAARRRPGGRYKSRVWYDYWGLGTQVTVSS,high polyreactivity
2,QVQLVESGGGLVQAGGSLRLRGAASGSIFVYYAMGWYRPAPGKERELVASISESDGSTSYADSVKGRFTISRDNAKNTVYLQMNSLKPEDTAVYYCAADPYFYWYSPSFDYWGQGTQVTVSS,low polyreactivity
3,QVQLVESGGGLVQAGGSLRLRSAASGGTIARYAMGWYRQATGKERELVAAITKSRDLTYYADSVKGRFTISRDSAKNTVYLQMNSLKPEDTAVYYCARPPSTGYQGGYDYWGQGTQVTVSS,high polyreactivity
4,QVQLVESGGGLVQAGGSLRLSCAAAGIIFISYDMGWYRPAPGKDRELVARINWDGGSTYYADSVKGRFTISRDKAKHTFYLQTNTLKPEDTAVSYCAAGFVGTNYPLQGFSYEYWGPGTQVTVSS,low polyreactivity
5,QVQLVESGGGLVQAGGSLRLSCAAAGITFKWNAMGWYRQAPGKERELVAVISSDGRTYYADSVKGRFTSSRDNAKNTVYLQMNSLKPEDTAVYYCARSHSYYPAGPYYYWGQGTQVTVSS,low polyreactivity
6,QVQLVESGGGLVQAGGSLRLSCAAAGITLYRYVMGWYRQAPGKERELVADISGRGTSTYYADSEKGRFTISRDNAKNTVYLQMNSLKPEDTAVYYCNAEYTKTGALVIPYTYYYAEDYWGQGTQVTVSS,low polyreactivity
7,QVQLVESGGGLVQAGGSLRLSCAAAGLIFSAYAMGWYRQAPGKEREVVAAISRSGGITYYADSVKGRFTISRDNAKNTVYLQMISLKPEDTAVYYCNARWYDPTLKFGYWGQGTQVTVSS,high polyreactivity
8,QVQLVESGGGLVQAGGSLRLSCAAAGSIFGDYVMGWYRQAPGKERELVPANTSATSTYYADSVKGRFTISRDNAKNTVYLQMNSLKPEDTAVYYCNADATYPLWPNIWYDYDYWGQGTQVTVSS,low polyreactivity
9,QVQLVESGGGLVQAGGSLRLSCAAAGSIFGSYAMGWSRQAPGKERELVPAINSGGATIYSDSVKGRFTISRDNAKNTVYLQMNSLKPEDTAVYYCNAPGRRFNRYGGDYWGQGTQVTVSS,high polyreactivity
10,QVQLVESGGGLVQAGGSLRLSCAAAGSIFVWYVMGWYRQAHGKEMELVAAITWSAARTYYADSVKGRFTISRDNAKNTVYLLMNSLKPEDTAVYYCAADHVSYQPSSRIFDYWGQGTQVTVSS,low polyreactivity
11,QVQLVESGGGLVQAGGSLRLSCAAAGSTFLRNALGWSRPAPGKKVSWVATISYDGDSTYYADSVKGRFTISRDNAKNTVYLQMNSLKPEDTAVYYCAASYSLTFWDKDDYWGQGTQVTVSS,low polyreactivity
12,QVQLVESGGGLVQAGGSLRLSCAAAGSTFRYYAMGWYRHAPGKDRELVAAITSGGNTYNADSVKGRFTISRDNAKNTVYLLMNSLKPEDTAVYYCAAVGYLKYDNWGQGTQVTVSS,low polyreactivity
13,QVQLVESGGGLVQAGGSLRLSCAAAGTTFSHNTMGWYRQAPGKERELVAAITSGGTTYYADSVKGRFTISRDNAKNTVYLQMMSLKPEDTAVYYCAALRPRGGYYYWGQGTQVTVSS,high polyreactivity
14,QVQLVESGGGLVQAGGSLRLSCAACGLTFGGYVMGWYRQAPGKVRELVAAISGSGGRTYYADSVKGRFTISRDNAKNTVYLQMNSLKPEDTAVYYCARPSRGPPRGYYWGKGTQVTVSS,high polyreactivity
15,QVQLVESGGGLVQAGGSLRLSCAACGNIFGPYAMGWYRQAPGKERELVAAISFTGVSTYYADSVKGRFTISRDNAKNTVYLQMNSLKPEDTAVYYCSYYRSSTYYYWGQGTQVTVSS,high polyreactivity
16,QVQLVESGGGLVQAGGSLRLSCAACGNTFYWNAMGLYRQAPGKERELVAAISTTGVSTYYADSVKGRFTISRDNAKNTVYLQMNSLKPEDTAVYYCAAEIIGYHTIYDYWGQGTQVTVSS,low polyreactivity
17,QVQLVESGGGLVQAGGSLRLSCAACGRTFRGYAMGWYRQAPGKERELVAAITSGGSTYYADSVKGRFTISRDNAKNTDFLEMNSLKPEDTAVYYCNKLYYSGKPRFRYDYWGQGTQVTVSS,high polyreactivity
18,QVQLVESGGGLVQAGGSLRLSCAACGSIFIGNAMGWYRQAPGKERELVAVISKGGGRTYYADSVKGRFTISRDNAKNTVYLKMNSLKPEDTAVYFCNTRNPESGDYWGQGTQVTVSS,high polyreactivity
19,QVQLVESGGGLVQAGGSLRLSCAACGSIFRRYAMGWYRQAPGKERELVASIRGGGGTYYADSVKGRFTISRDNAKNTVYLQMNSLKPEDTAVYYCAATRYLAYFRKSFYYWGQGTQVTVSS,high polyreactivity
20,QVQLVESGGGLVQAGGSLRLSCAACGSTFLYYAMGWYRQAPGKERELVAGISWDGTSTYYADSVKGRFTISRDNAKNSVYLQMNSLKPEDTAVYYCAAFGWSRVYHWRFEWGQGTQVTVSS,low polyreactivity
21,QVQLVESGGGLVQAGGSLRLSCAACGSTFYGHAMGWYRQAPGKRELVAAITWSGGSTYYADSVKGRFTISRDNAKNTVYLQMNSLKPEDTAVYYCAADRRNNNGASGTRLDYWGQGTQVTVSS,low polyreactivity
22,QVQLVESGGGLVQAGGSLRLSCAAPGSIFPRYAMGWYRQAPGKERELVAAISRSGGSTYYADSVKGRFTISRDNAKNTVSLQRNSLKPEDTAVYYCATDKVSHRRYDYWGQGTQVTVSS,high polyreactivity
23,QVQLVESGGGLVQAGGSLRLSCAASAFIFIIYAMGWYRQAPGKERELVAGIRWSGGSTYYADSVKGRFTISRDNAKNTVYLQMNSLKQEDTAVYYCNKDRGSLTLYTYDYWGQGTQVTVSS,low polyreactivity
24,QVQLVESGGGLVQAGGSLRLSCAASAFTFGYYAMGWYIQAPGKERELVAAISSGGNTNYADSVKGRFTISRDNAKNTVYLQMNSLKPEDTAVYYCNRRSWRYYKTYSAFNYWGQGSQVTVSS,high polyreactivity
25,QVQLVESGGGLVQAGGSLRLSCAASAFTFQNYAMGWYRQAPGKERELVAAIDSRGGRTYYADSVKGRFTISRDNAKNTVYLQMNSLKPEDTADDYCAVAENSRFGSVGYYYWGQGTQVTVSS,low polyreactivity
26,QVQLVESGGGLVQAGGSLRLSCAASAGTFNHYAMGWSRQEPGKERELVASITNGASTYYADSVKGRFTISRDNAKNTVYLQMNILKPEDTAVYYCAKRGRVGKYRYEYWGQGTLVTVSS,low polyreactivity
27,QVQLVESGGGLVQAGGSLRLSCAASAIIFRFYAMGWYRQAPGKERELVPAISSGGSTYYADSVKGRFTISRDNAKNTVYLQMNSLKPEDTAVYYCNARVRYKRTGRYGYWGQGTQVTVSS,high polyreactivity
28,QVQLVESGGGLVQAGGSLRLSCAASALTFRVYAMGWYRQAPGKERELVAAISFSGSSTFYADSVKGRFTISRDNAKNTVYLQMNSMKPEDTAVYYCAAGASEAVDVYDYWGQGTQVTVSS,low polyreactivity
29,QVQLVESGGGLVQAGGSLRLSCAASARTFSAYAMGWYRPAPGKERELVARITSVDSTNYADSVKGRFTISRDNAKNTVYLQMNSLKPEDTAVYYCNATFGYPFVDYDDYWGQGTQVTVSS,low polyreactivity
30,QVQLVESGGGLVQAGGSLRLSCAASARTFWAYAMGWYRQATGKEREWVAAITSSGTRTYYADSVKGRFTISRDNAKNTVYLKMNSLKPEDTAGYYCAAERIWLAHAYPTYVANDYWGQGTQVTVSS,high polyreactivity
